Results taken from PMC2408619.

Experiments:
[1] = target: His-tagged ectodomain of B. bronchiseptica pertactin (Prn-E; residues 38-640) (B. bronchiseptica) (UniProt Q03035); assay: pull-down; varying concentrations of Mtd incubated with 80 μM His-tagged Prn-E (5 min, 25 °C) before adding Ni2+-NTA beads; apparent Kd of Mtd-M1 estimated against Mtd-P6 with the Langmuir isotherm
[2] = target: Biotinylated Prn-E (pertactin residues 38-640 with N-terminal biotinylation sequence) (B. bronchiseptica) (UniProt Q03035); assay: SPR; Biacore 3000, 25 °C; ~100 RU biotinylated Prn-E on a streptavidin chip; Mtd proteins injected in 150 mM NaCl, 50 mM Tris pH 8.0, 0.005% Tween 20 at 30 μl/min; single-site model, global fit, six concentrations, duplicate
[3] = target: Biotinylated Prn-E (pertactin residues 38-640 with N-terminal biotinylation sequence) (B. bronchiseptica) (UniProt Q03035); assay: SPR; settings: natural protein
[4] = target: His-tagged ectodomain of B. bronchiseptica pertactin (Prn-E; residues 38-640) (B. bronchiseptica) (UniProt Q03035); assay: not stated; unpublished data; stoichiometry of Mtd-P6 with pertactin
[5] = target: Pertactin (Prn-E) ectodomain (Bordetella bronchiseptica) (UniProt Q03035); assay: ITC; settings: cited from earlier work

Bordetella bacteriophage major tropism determinant variant Mtd-M1 (from UniProt Q775D6 1-381) (natural protein)
Kd [1]: 500 µM
Kd [2]: > 450 µM

Bordetella bacteriophage major tropism determinant variant Mtd-P6 (from UniProt Q775D6 1-381)
koff [3]: 0.112 s⁻¹

Bordetella bacteriophage major tropism determinant variant Mtd-P6 (from UniProt Q775D6 1-381) (natural protein)
stoichiometry N (Mtd-P6 protomers per pertactin) [4]: 3
Kd [2]: 5.19 µM
kon [2]: 10000 M⁻¹ s⁻¹

Mtd-P1 (from UniProt Q775D6)
Kd [5]: 3.04 µM
